The chains are these.
B1: CPEB3 Ribozyme (parent)
chain: GGGGGCCACAGCAGAAGCGUUCACGUCGCGGCCCCUGUCAGAUUCUGGUGAAUCUGCGAAUUCUGCUGU

In this series the parent is B1. As to the kind of experiment: self-cleavage, relative activity (ratio to wild type); higher = more cleavage; co-transcriptional.
For G31C G58A, the self-cleavage amounted to 0.21. Regarding G30U C32A, the self-cleavage stood at 0.175. In the case of G31C C66A it was 0.252; in that of G31C C66U, 0.264. For G31C C66G, the self-cleavage stood at 0.155. Under G31U U64C stands 0.427; under G31U U64A, 0.446; under G31U C66U, 0.732.

As for G31U C66G, the self-cleavage came out at 0.415. Under G31U C66A stands 0.489. In the case of G31C C33A it was 0.338; in that of G31C C33G, 0.443; in that of G30C U62G, 0.343.

For the variant G30C U62A, the self-cleavage was determined as 0.259. G31C C63U: the self-cleavage is 0.251. In the case of G31C C63A it was 0.233; in that of G31C C63G, 0.133. With G31C C39G, the self-cleavage came out at 0.235.

G31C C39U: the self-cleavage worked out at 0.197. Under G31C C39A stands 0.186; under G30C U69G, 0.96; under G30C U69A, 0.88. Take G30C U69C: the self-cleavage was determined as 0.995.

G31C C32A: the self-cleavage came to 0.474. Under G31C C32U stands 0.235; under G30U U61C, 0.243.

As to G31A U36G, the self-cleavage is 0.268.

For G31A U36C, the self-cleavage turned out to be 0.669.

As for G31A U36A, the self-cleavage amounted to 0.218. Consider G31C A59C, for which the self-cleavage was 0.178. On to G31C A59U, for which the self-cleavage was 0.24.

With G31C C57G, the self-cleavage worked out at 0.151. Consider G30C U46G, for which the self-cleavage is 0.69. Take G31A C54A: the self-cleavage was determined as 0.489. For G31A C54U, the self-cleavage worked out at 0.793. For G31A C54G, the self-cleavage came out at 0.436. Under G31C G56A stands 0.2; under G31C G56U, 0.164; under G31C G56C, 0.139. Under G31A U67A stands 0.951; under G31A U67C, 0.984; under G31A G48U, 0.931. On to G31A U62G, for which the self-cleavage stood at 0.434. In the case of G31A U62C it was 0.406; in that of G31A U62A, 0.352. As for G31A C32U, the self-cleavage stood at 0.534.

Turning to G31A C32A, the self-cleavage was 0.637. Under G31C G50C stands 0.245; under G31C G50U, 0.238; under G31U C63U, 0.602. For G31U G68A, the self-cleavage worked out at 0.957. Turning to G30U A51U, the self-cleavage is 0.345. With G30U A51G, the self-cleavage is 0.4. In the case of G30U A51C it was 0.306. With G30C U61G, the self-cleavage was 0.304. Under G31U G41U stands 0.398; under G31A C66G, 0.707.

As to G30U U36G, the self-cleavage is 0.175.

Consider G30U U36A, for which the self-cleavage amounted to 0.198. Consider G30U U36C, for which the self-cleavage stood at 0.179. In the case of G31U A59U it was 0.334; in that of G31C U36C, 0.203. In the case of G31C U36G, the self-cleavage is 0.475. In the case of G31C U36A it was 0.155; in that of G31C G48U, 0.247; in that of G31C G48C, 0.222. Under G31C G48A stands 0.24; under G31U G56U, 0.568; under G31U G56A, 0.386. Turning to G31U C45G, the self-cleavage worked out at 0.559. G31U C45A: the self-cleavage came to 0.662.

On to G30U G37A, for which the self-cleavage was found to be 0.159. In the case of G30U G37C it was 0.186; in that of G31A G47U, 0.915; in that of G31C U67G, 0.355. Under G31C U67A stands 0.277; under G31A U49A, 0.886. In the case of G31A U49G it was 0.812; in that of G31A U49C, 0.938; in that of G30C U53G, 0.46.

On to G30C U53C, for which the self-cleavage amounted to 0.44. In the case of G30U C33U it was 0.295; in that of G30U C33G, 0.192; in that of G30U C33A, 0.233. Regarding G31U U43A, the self-cleavage stood at 0.443. In the case of G31U U43G it was 0.454. As to G31U U43C, the self-cleavage is 0.393. Take G30C U49A: the self-cleavage turned out to be 0.686.

For G30C U49G, the self-cleavage was 0.564.

On to G30C U49C, for which the self-cleavage worked out at 0.721. As to G31A A52C, the self-cleavage was determined as 0.82. In the case of G31A C39U it was 0.589; in that of G31A C39G, 0.733. Under G31U U62G stands 0.274; under G31U U62C, 0.226.

Consider G31C U61G, for which the self-cleavage was 0.158. For G31C U61C, the self-cleavage came out at 0.188.

As to G31C U61A, the self-cleavage amounted to 0.179. In the case of G31A A51G it was 0.928. In the case of G31A A51U it was 0.879; in that of G31A A51C, 0.897.

G30C U55G: the self-cleavage is 0.323. In the case of G30C U55C it was 0.388. Under G30C U55A stands 0.466; under G30U U38A, 0.201; under G30U U38G, 0.153.

As for G30U U38C, the self-cleavage was determined as 0.253. Regarding G31C U53A, the self-cleavage turned out to be 0.208. Under G31U U38A stands 0.537; under G31U U38G, 0.124.

For the variant G31U U38C, the self-cleavage was 0.505. Consider G31A G56C, for which the self-cleavage was 0.523. For the variant G31A G56A, the self-cleavage is 0.702. In the case of G31A G56U it was 0.767; in that of G31C U49G, 0.175.

Turning to G31C U49C, the self-cleavage worked out at 0.178. Under G31C U49A stands 0.286; under G31U U46C, 0.725; under G31U U46A, 0.785.

As for G31U U46G, the self-cleavage was determined as 0.638.

In the case of G31C C34G, the self-cleavage was 0.382.

Regarding G31C C34U, the self-cleavage was 0.281. Regarding G31C U69G, the self-cleavage came out at 0.444. Turning to G31A G68A, the self-cleavage was 1.03.

For G31A G68C, the self-cleavage stood at 1.02. Under G31A G68U stands 1. In the case of C32A it was 0.866; in that of G31C G65A, 0.147; in that of G31C G65U, 0.136. G31C A42U: the self-cleavage came to 0.18. As to G31C A42G, the self-cleavage was 0.277. As for G30U U55G, the self-cleavage amounted to 0.232. Under G30U U55A stands 0.304; under G30U U55C, 0.287. Under G31A C34A stands 0.239; under G30U, 0.411.

Take G31C C54A: the self-cleavage is 0.189. Turning to G31C C54G, the self-cleavage is 0.183. In the case of G31A G41C it was 0.349. Under G31A G41U stands 0.512; under G30U G68C, 0.825; under G31U A42G, 0.692. In the case of G31U A42C, the self-cleavage was found to be 0.458. In the case of G30C U43G it was 0.369; in that of G30U U49G, 0.352; in that of G30U U49C, 0.456. In the case of G30U U49A it was 0.365; in that of G30U U67A, 0.735; in that of G30U U53A, 0.297.

As to G30U U53G, the self-cleavage was found to be 0.241. Turning to G30U U53C, the self-cleavage was 0.276. Under G31A A40G stands 0.771. As to G31A A40U, the self-cleavage turned out to be 0.533. In the case of G31A A40C it was 0.218; in that of G30U C66U, 0.331. G30U C66G: the self-cleavage is 0.216. Under G30U C66A stands 0.278; under G31A C63G, 0.391. Take G31A C63U: the self-cleavage turned out to be 0.895. Under G31U C54U stands 0.729. Under G31U C54G stands 0.33; under G31C C45A, 0.25. Consider G31C C45G, for which the self-cleavage is 0.245. In the case of G31C C45U it was 0.263; in that of G30U G58C, 0.302. In the case of G30U G58A it was 0.284; in that of G30U G58U, 0.439.
